Data on one substance can be found in article PMC6711812.

This test deals with PpCESA3 (MbYTH bait and prey fusions) (Physcomitrella patens) (UniProt A9RGN5). As to the kind of experiment: two-hybrid.

Substance “PpCESA3 (MbYTH bait and prey fusions) (from UniProt A9RGN5 1-1093) (natural protein)” gave a colony growth as percent of the positive control of 20%.
